Results from patent US20210253716A1 (Regeneron, published 2021).

Legend:
[1] = biological target: T1, human ACVR1 extracellular domain expressed with a C-terminal mouse IgG2a Fc tag (human); assay: SPR (Biacore), mAb captured, 37 C
T1 construct: also called hACVR1-mFc
T1 chain: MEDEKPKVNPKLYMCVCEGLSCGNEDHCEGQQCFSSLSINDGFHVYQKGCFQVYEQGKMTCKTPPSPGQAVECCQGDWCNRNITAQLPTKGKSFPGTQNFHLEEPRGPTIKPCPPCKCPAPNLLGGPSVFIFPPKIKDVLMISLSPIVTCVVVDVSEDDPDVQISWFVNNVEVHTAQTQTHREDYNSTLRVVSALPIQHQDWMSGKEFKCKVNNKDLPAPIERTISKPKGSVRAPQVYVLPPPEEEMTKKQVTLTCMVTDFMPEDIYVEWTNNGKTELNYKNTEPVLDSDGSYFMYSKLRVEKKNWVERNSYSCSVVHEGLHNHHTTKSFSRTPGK
Outline: (§1)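 First, a CM5 chip is derivatized with mouse anti-human Fc antibody to capture the test mAbs. Next, ACVR1 reagents are injected at 30 μL/minute for 2.5-3 minutes, then dissociation is followed 10-15 minutes in pH 7.4 HBS-ET. Finally, 1:1 fitting yields ka and kd.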

[2] = biological target: T2, mouse ACVR1 extracellular domain expressed with a C-terminal myc-myc-hexahistidine tag (mouse); assay: SPR (Biacore), mAb captured, 37 C
T2 construct: also called mACVR1-MMH; mACVR1-mmh
T2 chain: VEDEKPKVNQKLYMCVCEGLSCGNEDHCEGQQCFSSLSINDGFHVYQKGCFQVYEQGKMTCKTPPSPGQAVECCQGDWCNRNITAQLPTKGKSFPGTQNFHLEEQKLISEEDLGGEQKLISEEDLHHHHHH
Outline: as §1

[3] = biological target: T3, human ACVR1 extracellular domain expressed with a C-terminal myc-myc-hexahistidine tag (human); assay: SPR (Biacore), mAb captured, 37 C
T3 construct: also called hACVR1-MMH
T3 chain: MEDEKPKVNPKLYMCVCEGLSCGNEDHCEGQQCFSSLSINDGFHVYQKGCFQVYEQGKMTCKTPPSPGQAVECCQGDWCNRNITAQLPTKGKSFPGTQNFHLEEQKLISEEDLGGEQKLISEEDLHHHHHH
Outline: (§2)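 Captured antibody surfaces (anti-human Fc) received ACVR1 protein in HEPES-buffered saline with EDTA and Tween-20, pH 7.4. Kinetics were fitted 1:1, with KD taken from the rate constants.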

[4] = biological target: T4, full length wild type human ACVR1 on HEK293/BRE-luc/hACVR1-wild type cells (human, UniProt Q04771 21-509); assay: flow cytometry, 66.6 nM antibody, HEK293/hACVR1-wt cells
T4 construct: also called HEK293/hACVR1-wt; hACVR1-wt
T4 sequence: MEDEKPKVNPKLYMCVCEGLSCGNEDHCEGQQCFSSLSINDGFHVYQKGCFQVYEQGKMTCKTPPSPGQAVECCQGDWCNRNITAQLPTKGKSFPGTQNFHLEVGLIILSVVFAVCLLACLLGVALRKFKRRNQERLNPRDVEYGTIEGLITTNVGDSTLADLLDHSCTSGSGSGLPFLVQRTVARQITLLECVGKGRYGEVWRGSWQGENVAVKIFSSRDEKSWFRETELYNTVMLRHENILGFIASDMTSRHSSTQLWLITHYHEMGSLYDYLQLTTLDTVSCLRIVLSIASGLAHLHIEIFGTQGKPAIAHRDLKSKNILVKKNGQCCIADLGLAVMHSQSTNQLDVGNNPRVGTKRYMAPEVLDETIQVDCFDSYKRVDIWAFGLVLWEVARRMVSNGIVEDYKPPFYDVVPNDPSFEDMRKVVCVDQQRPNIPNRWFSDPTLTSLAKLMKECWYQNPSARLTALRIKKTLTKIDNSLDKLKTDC
Procedure: (§3) Cells were fixed using BD CytoFix™ (Becton Dickinson, #554655) and analyzed on either Hypercyt® or IQue® Flow Cytometers (Intellicyt®). Unstained and secondary antibody alone controls were also tested for all cell lines. The results were analyzed using ForeCyt® (IntelliCyt®) software to determine the geometric means of fluorescence for viable cells and binding ratios were calculated by normalizing the geometric mean value of the test condition by the geometric mean value of the corresponding unstained cells.

[5] = biological target: T5, full length human ACVR1 (R206H) on HEK293/BRE-luc/hACVR1-R206H-clone H2 cells (human, UniProt Q04771 21-509); assay: flow cytometry, 66.6 nM antibody, HEK293/hACVR1-R206H cells
T5 construct: also called HEK293/hACVR1-R206H
T5 sequence: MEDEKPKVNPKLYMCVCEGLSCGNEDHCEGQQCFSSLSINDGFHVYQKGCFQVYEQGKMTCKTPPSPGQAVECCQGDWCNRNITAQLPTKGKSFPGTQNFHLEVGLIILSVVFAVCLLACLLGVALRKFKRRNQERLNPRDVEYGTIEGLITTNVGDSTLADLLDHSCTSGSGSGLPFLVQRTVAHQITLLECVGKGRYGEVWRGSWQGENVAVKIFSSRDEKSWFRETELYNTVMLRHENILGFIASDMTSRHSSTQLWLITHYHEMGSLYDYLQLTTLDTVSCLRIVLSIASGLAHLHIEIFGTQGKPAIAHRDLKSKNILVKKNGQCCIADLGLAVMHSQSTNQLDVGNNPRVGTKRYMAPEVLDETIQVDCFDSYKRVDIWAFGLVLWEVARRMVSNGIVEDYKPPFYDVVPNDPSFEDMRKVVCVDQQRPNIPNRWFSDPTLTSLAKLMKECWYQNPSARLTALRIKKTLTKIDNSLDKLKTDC
Procedure: as §3

[6] = biological target: T1, human ACVR1 extracellular domain …; assay: SPR (Biacore), mAb captured, 25 C
Outline: as §2

[7] = biological target: T2, mouse ACVR1 extracellular domain …; assay: SPR (Biacore), mAb captured, 25 C
Outline: as §2

[8] = biological target: T3, human ACVR1 extracellular domain …; assay: SPR (Biacore), mAb captured, 25 C
Outline: as §2

[9] = biological target: T5, full length human ACVR1 (R206H) on …; assay: cell-based or functional assay

B1: mAb22115 (antibody, human IgG4 S228P, kappa, V domains shown)
VH: EVQLVESGGGLVQPGGSLRLSCAASGFTSSRYWMSWVRQAPGKGLEWLANINQDGSEKYYLESLRGRFTISRDNAKNSLYLQMNNLRAEDTAVYYCARDEEGYWGQGTLVTVSS
VL: DVVMTQSLLSLSVTLGQPASISCRSSQSLVYSDGDTYLSWFQQRPGQSPRRLIYKVSHRDSGVPDRFRGSGSGTDFTLKISRVEAEDVGIYYCMQGTHWPPTFGQGTKVEIKR
- 100 nM Ag Bound (RU) [1]: 317 RU
- Kd [1]: 30.1 nM
- koff [1]: 0.0025 s⁻¹
- kon [1]: 83300 M⁻¹ s⁻¹
- t½ [1]: 276 s
- 900 nM or 100 nM Ag Bound (RU) [2]: 85 RU
- Kd [2]: 504 nM
- koff [2]: 0.0297 s⁻¹
- kon [2]: 58900 M⁻¹ s⁻¹
- t½ [2]: 23.4 s
- 900 nM or 100 nM Ag Bound (RU) [3]: 86 RU
- Kd [3]: 438 nM
- koff [3]: 0.0308 s⁻¹
- kon [3]: 70400 M⁻¹ s⁻¹
- t½ [3]: 22.2 s
- MFI - Normalized to Unstained Control [4]: 4 fold
- MFI - Normalized to Unstained Control [5]: 4 fold
- 100 nM Ag Bound (RU) [6]: 264 RU
- Kd [6]: 11.4 nM
- koff [6]: 0.000765 s⁻¹
- kon [6]: 66900 M⁻¹ s⁻¹
- t½ [6]: 900 s
- 900 nM or 100 nM Ag Bound (RU) [7]: 94 RU
- Kd [7]: 171 nM
- koff [7]: 0.00478 s⁻¹
- kon [7]: 28000 M⁻¹ s⁻¹
- t½ [7]: 144 s
- 900 nM or 100 nM Ag Bound (RU) [8]: 93 RU
- Kd [8]: 145 nM
- koff [8]: 0.00485 s⁻¹
- kon [8]: 33400 M⁻¹ s⁻¹
- t½ [8]: 144 s

B2: mAb22125 (antibody, human IgG4 S228P, kappa, V domains shown)
VH: QVQLVQSGAEVKKPGASVKVSCKASGYTFTGYYMHWVRQAPGQGLEWMGWINPNSVGTNFAQKFQGRVTMTRDTSISTAYMELSRLRSDDTAVYYCTRDGAAAGLFDYWGQGTLVTVSS
VL: DIQMTQSPSSLSASVGDRVTITCRASQGINNYLAWYQQKPGKVPKLLIYAASTLQSGVPSRFSGSGSGTDFTLTISSLQPEDVATYYCQKFNSAPLTFGGGTKVEIKR
- 100 nM Ag Bound (RU) [1]: 243 RU
- Kd [1]: 79.2 nM
- koff [1]: 0.0577 s⁻¹
- kon [1]: 729000 M⁻¹ s⁻¹
- t½ [1]: 12 s
- 900 nM or 100 nM Ag Bound (RU) [2]: 23 RU
- 900 nM or 100 nM Ag Bound (RU) [3]: 25 RU
- IC50 [M], BRE-luc reporter, 3 nM hActivin A [9]: 1.9e-08 M
- IC50 [M], BRE-luc reporter, 3 nM hBMP7 [9]: 1.6e-08 M
- MFI - Normalized to Unstained Control [4]: 183 fold
- MFI - Normalized to Unstained Control [5]: 235 fold
- 100 nM Ag Bound (RU) [6]: 268 RU
- Kd [6]: 12.3 nM
- koff [6]: 0.00802 s⁻¹
- kon [6]: 652000 M⁻¹ s⁻¹
- t½ [6]: 84 s
- 900 nM or 100 nM Ag Bound (RU) [7]: 41 RU
- Kd [7]: 836 nM
- koff [7]: 0.575 s⁻¹
- kon [7]: 688000 M⁻¹ s⁻¹
- t½ [7]: 1.2 s
- 900 nM or 100 nM Ag Bound (RU) [8]: 44 RU
- Kd [8]: 1020 nM
- koff [8]: 0.42 s⁻¹
- kon [8]: 413000 M⁻¹ s⁻¹
- t½ [8]: 1.8 s
